Columns and labels:
Experiment in all cases: ELISA
Conditions in all cases: both partners purified
[1] = molecular target: full‐length SARS‐CoV‐2 spike protein (1273 amino acids) (SARS-CoV-2 Wuhan, UniProt P0DTC2)
human serum albumin = human serum albumin (Homo sapiens, UniProt P02768)
[2] = molecular target: T1, Fc fusion of Severe acute respiratory syndrome coronavirus 2 P0DTC2 (SARS‐CoV‐2 Wuhan, UniProt P0DTC2)
T1 construct: also called RBD‐Fc; RBD

Measured: binding result

B1: Clostridioides difficile toxin A‐specific A20.1 VHH (VHH)
VHH: QVQLVESGGGLAQAGGSLRLSCAASGRTFSMDPMAWFRQPPGKEREFVAAGSSTGRTTYYADSVKGRFTISRDNAKNTVYLQMNSLKPEDTAVYYCAAAPYGANWYRDEYAYWGQGTQVTVSS
no binding: [1] | human serum albumin | [2]
